± gives the uncertainty stated by the source.

This series can be described thus: protein stability index of a GFP-peptide fusion (yeast GPS) (PSI 1-4); higher = more stable; sorted into four equal gates, so the index is relative within each strain. Summed up: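 The protein stability index of a peptide was calculated by multiplying its read frequency in each gate by that gate's number and adding the products. The peptides were tiled 17-residue stretches of yeast proteins, fused downstream of GFP on a Cherry-expressing plasmid and carried in yeast as a pooled library. Mid-log cultures in leucine-free medium were sorted into four equal gates by GFP/Cherry ratio, and each gate's plasmids were PCR-amplified and Illumina-sequenced.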

For the sequence EVFEFKTFNKIQSQVFE [BRR2], the protein stability index is, setting by setting: (pdr5∆) 3.29 ± 0.19; (ubr1∆) 3.08 ± 0.22.

Turning to KTQCPNYDTCGGESAYF [RPC11], the protein stability index stood at 3.21 ± 0.16 (doa10∆), 2.81 ± 0.26 (pdr5∆), 3.24 ± 0.073 (san1∆) and 2.94 ± 0.15 (ubr1∆).

IHKIQNDNNLKKLESQE [RPN5] displayed a protein stability index (doa10∆) of 3.08 ± 0.2, a protein stability index (pdr5∆) of 3 ± 0.17 and a protein stability index (san1∆) of 2.85 ± 0.11.

Take GHDADDGYQLFHAEPSG [PUP2]: the protein stability index by setting is: (doa10∆) 3.37 ± 0.19; (pdr5∆) 2.97 ± 0.18; (san1∆) 3.42 ± 0.079; (ubr1∆) 3.1 ± 0.14.

Turning to FDPSRIKDLKQREDKLK [SMC2], the protein stability index is 2.66 ± 0.087 (doa10∆), 2.88 ± 0.18 (pdr5∆), 2.99 ± 0.28 (san1∆) and 2.92 ± 0.13 (ubr1∆).

Consider GDTIELAIIGDENPDLL [PRE8], for which the protein stability index is, setting by setting: (doa10∆) 3.56 ± 0.22; (pdr5∆) 3.11 ± 0.17.

As to RLLPNGSNKAQISIIDI [YML031W/NDC1], the protein stability index was 2.91 ± 0.076 (doa10∆), 3.11 ± 0.067 (pdr5∆), 2.6 ± 0.048 (san1∆) and 2.92 ± 0.035 (ubr1∆).

Consider SIAAERYDYSDEVGRRS [YCG1], for which the protein stability index runs as follows: (doa10∆) 3 ± 0.075; (pdr5∆) 2.99 ± 0.11; (san1∆) 2.65 ± 0.14; (ubr1∆) 3.04 ± 0.063.

In the case of LDDDSIVNHEQDLPKIN [SRB4], the protein stability index is, setting by setting: (doa10∆) 2.7 ± 0.14; (pdr5∆) 2.92 ± 0.082; (san1∆) 2.99 ± 0.09; (ubr1∆) 2.81 ± 0.063.

For LQKKVASILLALTQMDQ [RPB3], the protein stability index runs as follows: (doa10∆) 2.88 ± 0.15; (pdr5∆) 2.9 ± 0.14; (san1∆) 2.16 ± 0.15; (ubr1∆) 2.62 ± 0.066.

With LSSGENRYAFSQPTNST [SMC4], the protein stability index is, setting by setting: (doa10∆) 3.22 ± 0.14; (pdr5∆) 2.96 ± 0.11; (ubr1∆) 2.85 ± 0.11.

Take VGKFLGYVSSLVEPSKV [FAS1]: the protein stability index is, setting by setting: (doa10∆) 1.71 ± 0.064; (pdr5∆) 2.14 ± 0.072; (san1∆) 1.69 ± 0.12; (ubr1∆) 1.89 ± 0.052.

In the case of NSGNSNSNSNQQSTDAD [RPT1], the protein stability index runs as follows: (doa10∆) 2.59 ± 0.081; (pdr5∆) 2.48 ± 0.081; (san1∆) 2.48 ± 0.09; (ubr1∆) 2.64 ± 0.052.

VITLLNNSSITLRCSVV [YCS4] showed a protein stability index (doa10∆) of 2.04 ± 0.06, a protein stability index (pdr5∆) of 1.2 ± 0.062, a protein stability index (san1∆) of 1.21 ± 0.12 and a protein stability index (ubr1∆) of 1.16 ± 0.051.

As to STFGFNNSAPNNTNNAN [YJL041W/NSP1], the protein stability index reads like this: (doa10∆) 3.13 ± 0.042; (pdr5∆) 3.18 ± 0.047; (san1∆) 2.96 ± 0.039; (ubr1∆) 3.19 ± 0.038.

LMRSCFYLMVSSLSFGP [YJL039C/NUP192] yielded a protein stability index (doa10∆) of 1.64 ± 0.04, a protein stability index (pdr5∆) of 1.48 ± 0.04, a protein stability index (san1∆) of 1.76 ± 0.075 and a protein stability index (ubr1∆) of 1.19 ± 0.033.

For the sequence DVKVIMATNKIETLDPA [RPT2], the protein stability index reads like this: (doa10∆) 3.17 ± 0.091; (pdr5∆) 2.96 ± 0.093; (san1∆) 2.92 ± 0.07; (ubr1∆) 2.9 ± 0.068.

For the sequence LQDELKELQLEKESVEK [SMC3], the protein stability index (doa10∆) worked out at 3.66 ± 0.13, the protein stability index (pdr5∆) was 3.25 ± 0.21 and the protein stability index (san1∆) was 2.7 ± 0.26.

With VLESIVARTFWASKYGQ [BRR2], the protein stability index is 2.74 ± 0.063 (doa10∆), 2.37 ± 0.062 (pdr5∆), 2.47 ± 0.096 (san1∆) and 2.61 ± 0.067 (ubr1∆).

For DSKKIKVDSPDDPFMTK [GAL11], the protein stability index turned out to be 2.55 ± 0.075 (doa10∆), 2.57 ± 0.074 (pdr5∆), 2.5 ± 0.057 (san1∆) and 2.82 ± 0.04 (ubr1∆).

For the sequence QQNPKFLQSQRQQQQRS [SWI1], the protein stability index reads like this: (doa10∆) 2.47 ± 0.06; (pdr5∆) 1.94 ± 0.063; (san1∆) 2.67 ± 0.057; (ubr1∆) 2.05 ± 0.067.

For the sequence FRGNISQPKIGYGSNKK [RPL32], the protein stability index amounted to 2.88 ± 0.094 (doa10∆), 2.88 ± 0.06 (pdr5∆), 2.88 ± 0.067 (san1∆) and 2.89 ± 0.049 (ubr1∆).

ELTDEYLAENPDPNFEN [PRP8]: the protein stability index by setting is: (doa10∆) 3.45 ± 0.077; (pdr5∆) 3.16 ± 0.076; (san1∆) 3.36 ± 0.077; (ubr1∆) 3.32 ± 0.053.

For the sequence NTLGKGQNCLDIDGIMD [SNU114], the protein stability index worked out at 3.3 ± 0.23 (doa10∆), 3.15 ± 0.1 (pdr5∆), 3.02 ± 0.12 (san1∆) and 3.2 ± 0.11 (ubr1∆).

With YVMERPKNVPTSKWLNS [YDL116W/NUP84], the protein stability index is, setting by setting: (doa10∆) 2.61 ± 0.057; (pdr5∆) 2.75 ± 0.055; (san1∆) 2.63 ± 0.072; (ubr1∆) 2.82 ± 0.043.

For the origin of these results see the supplement of paper PMC9732359.
